Measured values as given in US20240218064A1 (AstraZeneca / MedImmune, published 2024).

B1: MEDI6570 Fab (Fab, V domains shown)
VH: QVQLVQSGAEVKKPGASVKVSCKVSGYTLTELSMHWVRQAPGKGLEWMGGFDPEDFKYHTHQKFQGRVTMTEDTSTDTAYMELSSLRSEDTAVYYCALVWGTQGKGVRGWDYYYGMDVWGQGTTVTVSS
VL: QSVVTQPPSVSGAPGQRVTISCTGSSSNIGAGYDVHWYQQLPGTAPKLLIYGNSNRPSGVPDRFSGSKSGTSASLAITGLQAEDEADYYCQSYDSSLSGWVFGGGTKLTVL
notes: also called Fab of the antibody MEDI6570
B2: MEDI6570 (antibody, human IgG1, lambda, V domains shown)
VH: B1 VH
VL: QSVVTQPPSVSGAPGQRVTISCTGSSSNIGAGYDVHWYQQLPGTAPKLLIYGNSNRPSGVPDRFSGSKSGTSASLAITGLQAEDEADYYCQSYDSSLSGWVFGGGTKLTVLG
notes: Fully human IgG1-lambda; also called LX5140110-IgG1-TM

Columns and labels:
[1] = biological target: cynomolgus monkey LOX-1 (cynomolgus monkey, UniProt A0A2K5VQ73 79-291); test: BIAcore (SPR)
[2] = biological target: T1, human LOX-1 (lectin-like oxidized low density lipoprotein receptor-1) (human, UniProt P78380 61-273); test: BIAcore (SPR); Fab, not full mAb; LOX-1
[3] = biological target: T1, human LOX-1 (lectin-like oxidized low …); test: in vitro inhibition of ligand binding to human LOX-1; competitor ligand CRP; ligand CRP
Description: (§1) FIG. 3. MEDI6570 inhibition of ligand binding. AGE-BSA=advanced glycation end products-bovine serum albumin; CRP=c-reactive protein; IgG-immunoglobulin G; OxLDL=oxidized low-density lipoprotein. Antibodies were titrated across a 384 well dilution plate in assay buffer (PBS/0.1% BSA/0.01% Tween 20) over 24 points in duplicate.
(§2) The ability of MEDI6570 to inhibit binding of the LOX-1 ligands oxLDL, AGE (advanced glycation end products, in this case glycated bovine serum albumin, BSA) and CRP was determined using in vitro assays. AGEs are known ligands of LOX-1. They commonly occur in patients that have poorly regulated levels of blood glucose, which is a risk factor for cardiovascular disease.

[4] = biological target: T1, human LOX-1 (lectin-like oxidized low …); test: in vitro inhibition of ligand binding to human LOX-1; competitor ligand oxLDL; ligand oxLDL
Description: as §1, §2

[5] = biological target: T1, human LOX-1 (lectin-like oxidized low …); test: in vitro inhibition of ligand binding to human LOX-1; competitor ligand AGE-BSA; ligand AGE-BSA
Description: as §1, §2

[6] = biological target: T2, soluble LOX-1 (sLOX-1) in sera of participants with T2DM (human, UniProt P78380 89-273, limits assumed); test: sLOX-1 in sera of participants with T2DM; the paragraph names BIAcore, the method for this value is not made clear; full mAb; sLOX-1 in sera of participants with T2DM
T2 construct: domain: cleaved soluble domain of LOX-1; Endogenous protein in patient serum; also called soluble lectin-like oxidized low-density lipoprotein receptor 1

Binder	Kd [1] [nM]	Kd [2] [nM]	IC50 [3] [nM]	IC50 [4] [nM]	IC50 [5] [nM]	Kd [6] [nM]
B1	0.116	0.056				
B2			4.8	0.34	0.54	~0.173
